Assay results taken from PMC4894546 (Nature structural & molecular biology, 2016).

T1: NEIL2 (Homo sapiens, UniProt Q969S2 1-332)
T1 sequence: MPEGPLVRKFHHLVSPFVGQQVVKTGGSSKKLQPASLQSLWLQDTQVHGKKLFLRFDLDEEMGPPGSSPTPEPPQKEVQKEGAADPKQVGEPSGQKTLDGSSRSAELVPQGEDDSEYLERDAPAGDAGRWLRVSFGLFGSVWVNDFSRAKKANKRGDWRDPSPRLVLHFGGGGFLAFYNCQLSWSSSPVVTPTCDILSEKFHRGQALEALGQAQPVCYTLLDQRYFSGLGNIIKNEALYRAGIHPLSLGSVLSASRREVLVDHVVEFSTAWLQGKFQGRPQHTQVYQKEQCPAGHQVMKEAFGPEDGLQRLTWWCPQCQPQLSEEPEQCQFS


Key:
TDG = TDG (Homo sapiens, UniProt Q13569 1-410); assay: EMSA
NEIL2 [1] = target: T1, NEIL2; assay: EMSA
NEIL1 [2] = target: T2, NEIL1 (Homo sapiens, UniProt Q96FI4 1-390); assay: EMSA
[3] = target: human thymine DNA glycosylase (TDG), recombinant (human, UniProt Q13569 1-410); assay: MST
NEIL2 [4] = target: T1, NEIL2; assay: EMSA; remark: listed apart in the source
NEIL1 [5] = target: T2, NEIL1; assay: EMSA; remark: listed apart in the source

T2 sequence (Q96FI4 whole entry): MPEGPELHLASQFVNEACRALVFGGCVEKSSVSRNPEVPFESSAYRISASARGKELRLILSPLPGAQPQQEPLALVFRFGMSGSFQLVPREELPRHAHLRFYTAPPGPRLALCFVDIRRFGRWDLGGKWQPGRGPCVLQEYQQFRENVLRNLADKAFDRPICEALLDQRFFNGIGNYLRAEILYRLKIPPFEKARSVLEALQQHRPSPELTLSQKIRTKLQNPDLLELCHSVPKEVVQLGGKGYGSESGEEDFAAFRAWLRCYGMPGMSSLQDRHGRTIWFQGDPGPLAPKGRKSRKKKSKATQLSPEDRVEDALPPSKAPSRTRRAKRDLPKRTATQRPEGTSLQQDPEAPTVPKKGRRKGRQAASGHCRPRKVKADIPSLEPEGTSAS
TDG, sequence (Q13569 whole entry): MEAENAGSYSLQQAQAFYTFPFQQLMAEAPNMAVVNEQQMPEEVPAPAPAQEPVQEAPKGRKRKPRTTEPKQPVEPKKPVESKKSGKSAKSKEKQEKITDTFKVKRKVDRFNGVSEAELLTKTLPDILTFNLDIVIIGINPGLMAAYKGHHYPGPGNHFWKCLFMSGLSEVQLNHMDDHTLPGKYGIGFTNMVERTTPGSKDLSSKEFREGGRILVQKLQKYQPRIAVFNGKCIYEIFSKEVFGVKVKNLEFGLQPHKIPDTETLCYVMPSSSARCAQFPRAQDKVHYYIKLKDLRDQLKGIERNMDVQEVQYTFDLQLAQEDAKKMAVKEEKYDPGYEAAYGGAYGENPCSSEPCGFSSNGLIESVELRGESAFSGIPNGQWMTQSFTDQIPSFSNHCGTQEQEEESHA
human thymine DNA glycosylase (TDG), recombinant, sequence (Q13569 whole entry): as above

Binder	binding result (TDG)	binding result (NEIL2 [1])	binding result (NEIL1 [2])	binding result [3]	Kd (NEIL2 [4])	binding signal (NEIL1 [5])
20mer_5fC duplex (5fC:G) (dsDNA, 5-formylcytosine at position 11 of strand 1 (hemi-modified)) DNA 1: CGCTAGGATCCGGCCCCGCC DNA 2: GGCGGGGCCGGATCCTAGCG	binds	binds	binds	–	–	–
20mer_5caC duplex (5caC:G) (dsDNA, 5-carboxylcytosine at position 11 of strand 1 (hemi-modified)) DNA 1: CGCTAGGATCCGGCCCCGCC DNA 2: GGCGGGGCCGGATCCTAGCG	binds	binds	binds	–	–	–
human NEIL2 DNA glycosylase, recombinant (enzyme, UniProt Q969S2 1-332, looked up) MPEGPLVRKFHHLVSPFVGQQVVKTGGSSKKLQPASLQSLWLQDTQVHGKKLFLRFDLDEEMGPPGSSPTPEPPQKEVQKEGAADPKQVGEPSGQKTLDGSSRSAELVPQGEDDSEYLERDAPAGDAGRWLRVSFGLFGSVWVNDFSRAKKANKRGDWRDPSPRLVLHFGGGGFLAFYNCQLSWSSSPVVTPTCDILSEKFHRGQALEALGQAQPVCYTLLDQRYFSGLGNIIKNEALYRAGIHPLSLGSVLSASRREVLVDHVVEFSTAWLQGKFQGRPQHTQVYQKEQCPAGHQVMKEAFGPEDGLQRLTWWCPQCQPQLSEEPEQCQFS	–	–	–	binds	–	–
20mer_dC duplex (unmodified) (dsDNA) DNA 1: CGCTAGGATCCGGCCCCGCC DNA 2: GGCGGGGCCGGATCCTAGCG	–	–	–	–	27 nM	3 fold lower affinity than AP site duplex
